This is an account of results in patent US20090053243A1 (INSTITUTE FOR ANTIBODIES, published 2009).

The test has as its target T1, IgSF4 (Immunoglobulin superfamily member 4), human, as expressed by human cell lines (human, UniProt Q9BY67 45-442).
T1 construct: also called BL2; ST17
T1 sequence: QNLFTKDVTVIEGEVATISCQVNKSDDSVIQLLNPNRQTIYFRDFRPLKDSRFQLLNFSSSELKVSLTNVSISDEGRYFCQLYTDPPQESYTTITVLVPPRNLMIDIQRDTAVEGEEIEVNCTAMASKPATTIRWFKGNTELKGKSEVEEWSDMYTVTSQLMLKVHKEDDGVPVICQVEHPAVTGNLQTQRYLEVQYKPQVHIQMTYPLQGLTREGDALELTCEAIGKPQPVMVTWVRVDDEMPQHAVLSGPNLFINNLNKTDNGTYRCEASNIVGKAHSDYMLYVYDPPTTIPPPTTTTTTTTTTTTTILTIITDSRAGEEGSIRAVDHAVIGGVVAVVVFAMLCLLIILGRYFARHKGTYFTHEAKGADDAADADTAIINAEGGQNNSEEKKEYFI
The experiment in a line: statement in the ADCC experiment on VMRC-LCD target cells.

Description: As target cells to be used, lung cancer derived cultured cells VMRC-LCD (provided from Japanese Collection of Research Bioresources) was grown in a liquid culture medium 1 (Minimum Essential Medium Alpha Medium: Invitrogen, 10% (v/v) fetal bovine serum: Equitic-Bio, 1% (v/v) Penicillin-Streptomycin Solution: Sigma-Aldrich) on a culture dish having a diameter of 150 mm. The liquid culture medium was removed, cells were washed with 10 ml of PBS twice, and liquid was removed. To this, 5 ml of 4% (w/v) collagenase Type IV (Invitrogen) was added and maintained at 37° C. for 10 minutes, thereby peeling the cells off from the culture dish.
Into a U-bottom 96-well multiplate (Becton Dickinson), 66 μl/well of target cells (2×10⁴ cells) were placed. To this, 66 μl of IgG antibody (3 μg/ml) was added, and then 66 μl of peripheral blood mononuclear leukocyte suspension (7.5×10⁵ cells) was added. The E/T ratio (ratio of the effector cells and target cells) was made to be 20. In order to prompt to associate cells, centrifugation (60×g, 4° C., 5 minutes) was carried out so as to precipitate cells in the bottom. Then, the cells were incubated for 240 minutes in a culture device under conditions of 37° C. and 5% CO₂, and thus the ADCC reaction was induced. Each antibody sample was prepared as a CTM solution. […] Furthermore, in each experiment group, three wells were used.

B1: IgG type antibody 035-029 (antibody, V domains shown)
VH: EVQLVESGGGLVKPGGSLRLSCAASGFTFSSYAMSWVRQAPGKGLEWVSAISGSGGSTYYADSVKGRFTISRDNSKNTLYLQMNSLRAEDTALYYCARDNWYFDLWGRGTLVTVSS
VL: SSELTQDPAVSVALGQTVRITCQGDSLRSYYASWYQQKPGQAPVLVIYGKNNRLSGIPDRFSGSSSGNTASLTITGAQAEDEADYYCNSRDSSGNHVVFGGGTKLTVLG
notes: also called IgG antibody clone 035-029; human IgG type antibody clone recognizing IgSF4
Consider B1, for which the binding result is “binds”.
